In paper PMC4660432:
Blank lines part the entries; values can stand above or below the substance they belong to.

Experiments:
[1] = test system: TAF1 double bromodomain (TAF1-BrD); assay: EMSA; conditions: EMSA: 20 mM Tris-HCl pH 7.5, 40 mM NaCl, 0.75 mM EDTA, 1 mM DTT, 1 h at 25 C, 2.5 pmol NCP, 5% native PAGE in 0.2x TBE
[2] = target: K12-acetylated nucleosome core particle (human) (UniProt P04908); assay: native gel or EMSA; 2.5 pmol NCP mixed with the TAF1-BrD at the indicated ratios; 20 mM Tris-HCl pH 7.5, 40 mM NaCl, 0.75 mM EDTA, 1 mM DTT; 1 hr at 25 °C; native 5% PAGE in 0.2x TBE; densitometry; dissociation constants estimated from triplicates
[3] = target: K16-acetylated nucleosome core particle (human) (UniProt P04908); assay: as above
[4] = target: K5/K8-di-acetylated nucleosome core particle (human) (UniProt P04908); assay: as above
[5] = target: K5/K8/K12/K16-tetra-acetylated nucleosome core particle (biochemical analyses; N11-thrombin-tagged H4) (human) (UniProt P04908); assay: as above
[6] = target: unmodified nucleosome core particle (biochemical analyses; N11-thrombin-tagged H4) (human) (UniProt P04908); assay: as above

Substance: H4-K5/K8-di-acetylated NCP
Kd ([1]; histone H4 K5ac, K8ac): 6.1 µM

Substance: H4-K5/K8/K12/K16-tetra-acetylated NCP
Kd ([1]; histone H4 K5ac, K8ac, K12ac, K16ac): 3.9 µM

Substance: H4-K12ac NCP
Kd ([1]; histone H4 K12ac): 12.3 µM

Substance: H4-K16ac NCP
Kd ([1]; histone H4 K16ac): 13.3 µM

Kd [2]: 12.3 µM
Kd [3]: 13.3 µM
Kd [4]: 6.1 µM
Kd [5]: 3.9 µM
Kd [6]: 19.3 µM
Substance: TAF1 double bromodomain (from UniProt P21675 1-1893) (domain or fragment)

Substance: unmodified NCP
Kd [1]: 19.3 µM
